biological target: c-MET on the surface of HT29 and HCT-116 human colon cancer cells (human, UniProt P08581 25-1390); experiment: cell-based or functional assay
Sequence (P08581 25-1390 limits assumed): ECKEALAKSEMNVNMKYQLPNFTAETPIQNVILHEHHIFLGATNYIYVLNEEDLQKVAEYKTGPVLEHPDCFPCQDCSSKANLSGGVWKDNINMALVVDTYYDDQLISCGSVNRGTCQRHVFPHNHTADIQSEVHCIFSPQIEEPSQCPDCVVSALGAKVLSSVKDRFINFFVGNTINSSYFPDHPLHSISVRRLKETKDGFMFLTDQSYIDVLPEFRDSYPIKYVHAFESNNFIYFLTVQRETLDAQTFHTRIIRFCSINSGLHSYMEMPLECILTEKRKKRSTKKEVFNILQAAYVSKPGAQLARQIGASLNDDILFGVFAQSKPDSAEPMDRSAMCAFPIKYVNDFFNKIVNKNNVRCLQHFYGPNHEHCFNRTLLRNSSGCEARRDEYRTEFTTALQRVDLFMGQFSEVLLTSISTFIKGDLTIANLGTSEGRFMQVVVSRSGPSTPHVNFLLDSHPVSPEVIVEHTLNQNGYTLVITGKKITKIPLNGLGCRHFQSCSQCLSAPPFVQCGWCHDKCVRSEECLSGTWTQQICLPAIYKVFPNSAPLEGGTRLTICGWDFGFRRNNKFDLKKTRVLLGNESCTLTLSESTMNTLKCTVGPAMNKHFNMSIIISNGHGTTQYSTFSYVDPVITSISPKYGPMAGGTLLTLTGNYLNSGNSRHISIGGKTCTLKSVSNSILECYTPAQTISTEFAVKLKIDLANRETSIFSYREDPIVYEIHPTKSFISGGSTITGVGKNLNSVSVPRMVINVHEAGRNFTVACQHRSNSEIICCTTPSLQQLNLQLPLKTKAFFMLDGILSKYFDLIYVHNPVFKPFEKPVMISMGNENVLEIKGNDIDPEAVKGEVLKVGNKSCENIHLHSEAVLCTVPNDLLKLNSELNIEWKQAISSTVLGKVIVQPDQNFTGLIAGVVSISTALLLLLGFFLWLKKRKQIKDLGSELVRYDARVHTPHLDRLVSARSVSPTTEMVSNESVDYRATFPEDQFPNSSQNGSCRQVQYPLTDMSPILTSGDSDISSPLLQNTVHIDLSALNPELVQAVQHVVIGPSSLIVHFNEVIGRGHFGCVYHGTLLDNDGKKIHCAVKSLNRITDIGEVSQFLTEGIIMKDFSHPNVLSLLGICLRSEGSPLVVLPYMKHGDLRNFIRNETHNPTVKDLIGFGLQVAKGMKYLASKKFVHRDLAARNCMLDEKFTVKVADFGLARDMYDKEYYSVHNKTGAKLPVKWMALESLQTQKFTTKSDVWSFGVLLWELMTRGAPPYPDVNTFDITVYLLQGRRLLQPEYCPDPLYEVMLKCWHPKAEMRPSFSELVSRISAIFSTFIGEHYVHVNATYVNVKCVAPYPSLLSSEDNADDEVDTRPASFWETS

Binder	EC50 of human NK cell lysis of c-MET positive target cells (DELFIA cytotoxicity assay) [nM]
A49MI-Duobody-TriNKET-Onartuzumab (bispecific antibody, human IgG1, kappa) heavy 1: not shown light 1: DIQMTQSPSSLSASVGDRVTITCKSSQSLLYTSSQKNYLAWYQQKPGKAPKLLIYWASTRESGVPSRFSGSGSGTDFTLTISSLQPEDFATYYCQQYYAYPWTFGQGTKVEIKRTVAAPSVFIFPPSDEQLKSGTASVVCLLNNFYPREAKVQWKVDNALQSGNSQESVTEQDSKDSTYSLSSTLTLSKADYEKHKVYACEVTHQGLSSPVTKSFNRGEC heavy 2: not shown light 2: DIQMTQSPSSVSASVGDRVTITCRASQGISSWLAWYQQKPGKAPKLLIYAASSLQSGVPSRFSGSGSGTDFTLTISSLQPEDFATYYCQQGVSFPRTFGGGTKVEIKRTVAAPSVFIFPPSDEQLKSGTASVVCLLNNFYPREAKVQWKVDNALQSGNSQESVTEQDSKDSTYSLSSTLTLSKADYEKHKVYACEVTHQGLSSPVTKSFNRGEC	< 1
A49MI-Duobody-TriNKET-Emibetuzumab (bispecific antibody, human IgG1, kappa) heavy 1: not shown light 1: DIQMTQSPSSLSASVGDRVTITCSVSSSVSSIYLHWYQQKPGKAPKLLIYSTSNLASGVPSRFSGSGSGTDFTLTISSLQPEDFATYYCQVYSGYPLTFGGGTKVEIKRTVAAPSVFIFPPSDEQLKSGTASVVCLLNNFYPREAKVQWKVDNALQSGNSQESVTEQDSKDSTYSLSSTLTLSKADYEKHKVYACEVTHQGLSSPVTKSFNRGEC heavy 2: not shown light 2: DIQMTQSPSSVSASVGDRVTITCRASQGISSWLAWYQQKPGKAPKLLIYAASSLQSGVPSRFSGSGSGTDFTLTISSLQPEDFATYYCQQGVSFPRTFGGGTKVEIKRTVAAPSVFIFPPSDEQLKSGTASVVCLLNNFYPREAKVQWKVDNALQSGNSQESVTEQDSKDSTYSLSSTLTLSKADYEKHKVYACEVTHQGLSSPVTKSFNRGEC	< 1
A49MI-Duobody-TriNKET-ABT-700 (bispecific antibody, human IgG1, kappa) heavy 1: not shown light 1: not shown heavy 2: not shown light 2: DIQMTQSPSSVSASVGDRVTITCRASQGISSWLAWYQQKPGKAPKLLIYAASSLQSGVPSRFSGSGSGTDFTLTISSLQPEDFATYYCQQGVSFPRTFGGGTKVEIKRTVAAPSVFIFPPSDEQLKSGTASVVCLLNNFYPREAKVQWKVDNALQSGNSQESVTEQDSKDSTYSLSSTLTLSKADYEKHKVYACEVTHQGLSSPVTKSFNRGEC	< 1

From US20220153848A1 (DRAGONFLY THERAPEUTICS, published 2022)
